B1: Ribonuclease, P00648 (parent)
chain: MMKMEGIALKKRLSWISVCLLVLVSAAGMLFSTAAKTETSSHKAHTEAQVINTFDGVADYLQTYHKLPDNYITKSEAQALGWVASKGNLADVAPGKSIGGDIFSNREGKLPGKSGRTWREADINYTSGFRNSDRILYSSDWLIYKTTDHYQTFTKIR

The variants in this series derive from B1. The settings on record: Bacillus amyloliquefaciens; pH 6.3; 25 °C; Urea; Fluorescence; MES 50 mM; reversible: yes; structure 1BNI; whole UniProt chain shown.

D55A R157A: the “ddG of mutation (higher = less stable)” value was 0.47 kcal/mol, the denaturant m value worked out at 1.96 kcal/mol/M, the “denaturant midpoint (higher = more stable)” value (“denaturant midpoint” below) is 4.36 M and the unfolding free energy stood at 9.46 kcal/mol.
The like results for D59A R157A were, in that order, -0.45 kcal/mol, 2.14 kcal/mol/M, 4.78 M and 10.4 kcal/mol.
D55A D59A: the “ddG of mutation (higher = less stable)” value was 0.89 kcal/mol, the denaturant m value worked out at 1.98 kcal/mol/M, the “denaturant midpoint” value was found to be 4.16 M and the unfolding free energy turned out to be 9.04 kcal/mol.
Consider D55A D59A R157A, for which the “ddG of mutation (higher = less stable)” value is -0.11 kcal/mol, the denaturant m value stood at 2.16 kcal/mol/M, the “denaturant midpoint” value worked out at 4.63 M and the unfolding free energy is 10 kcal/mol.
The like results for D59A were, in that order, 0.34 kcal/mol, 2.12 kcal/mol/M, 4.42 M and 9.59 kcal/mol.
On the same counts, the results for D55A are 0.99 kcal/mol, 2.15 kcal/mol/M, 4.12 M and 8.94 kcal/mol.
The like results for R157A were, in that order, 0.46 kcal/mol, 2.26 kcal/mol/M, 4.37 M and 9.47 kcal/mol.

For the origin of these results see FireProtDB (doi:10.1016/s0022-2836(99)80018-7).
